# Test results taken from patent US20240327500A1.
# Molecular target: HBV virions (Genotype D) (Hepatitis B virus genotype D)
# Experiment: cell-based or functional assay
substance,measurement,value
HBC34 (antibody),"neutralization at 0.03 µg/ml, in-vitro assay",29%
